The data set has as its target EGFRvIII (UniProt P00533). Nature of the data set: BLI. The following applies: inverted dT at the end, BLI: association 200 s, dissociation 400 s, PBS + 0.05% Tween-20 (stated for NOTA-aptamer dissociation), protein loading at room temperature, cells: DPBS ….

This passage reports Kd results from paper PMC11207964.

Take “TGAGTAAGTGAGTACCGTTTGCGATTTGGAGAACTACGCAATCA [EGFRvIII aptamer (44 nt)]”: the Kd (P = 2Nap-dU (5-[N-(2-naphthylmethyl)carboxamide]-2'-deoxyuridine), written as T at 5,9,13,18,19,20,25,26,27,35,42, T1 printed as T) turned out to be 0.87 nM. Take “TGAGTAAGTGAGTACCGTTTGCGATTTGGAGAACTACGCAATCA [NOTA-EGFRvIII aptamer]”: the Kd (protein on Ni-NTA probe, 125-500 nM aptamer, PBS 0.05% Tween-20, 2Nap-dU written as T at 5,9,13,18,19,20,25,26,27,35,42, 5'-amine conjugated to p-SCN-Bn-NOTA) was found to be 2.05 nM.
